The values below come from patent publication US20230295312A1 (AKESO BIOPHARMA, published 2023).

Positions count from the first letter of the chain named.

Assay [1] has as its target T1, human IL4RA-hFc (human, UniProt P24394 26-232).
T1 construct: mature; Coating antigen in ELISA
T1 sequence (looked up): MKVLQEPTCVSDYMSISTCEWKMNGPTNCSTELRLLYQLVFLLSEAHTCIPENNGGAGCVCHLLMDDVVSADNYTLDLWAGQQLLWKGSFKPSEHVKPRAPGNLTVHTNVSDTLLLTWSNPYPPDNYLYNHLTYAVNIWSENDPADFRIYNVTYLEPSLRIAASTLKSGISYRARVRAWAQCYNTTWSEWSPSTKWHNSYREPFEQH
The experiment in a line: competitive ELISA; blocks IL4-N-His binding to coated IL4RA-hFc. In general terms: An ELISA detects its analyte on a solid surface through an enzyme-linked reagent.

Assay [2] addresses T1, human IL4RA-hFc. The experiment in a line: competitive ELISA vs IL4-N-His; Ab 3 ug/mL. The protocol:
The ELISA plates were coated with human IL4RA-hFc and blocked before the antibodies were added. […] After the plates were washed, mouse anti-His, HRP (purchased from CoWin Biosciences, Cat No. CW0285A) was added for incubation. The plates were subjected to another wash. Chromogenic reaction was started by adding TMB (Neogen, 308177) and was then terminated. At the end of the reaction, the OD value at 450 nm wavelength was measured by a plate reader, and was analyzed and processed by SoftMax Pro 6.2.1.
(§1) By 4-parameter logistic regression of absorbance vs. antibody concentration, the blocking EC₅₀ of the antibodies was calculated.

The target of assay [3] is T1, human IL4RA-hFc. The experiment in a line: indirect ELISA, antigen coated 1 ug/mL. The protocol: Procedures: The ELISA plates were coated with human IL4RA-hFc or human IL4RA-mFc and were incubated, and target antibodies were added after blocking. […] The plates were incubated and washed before TMB (Neogen, 308177) was added for chromogenic reaction. At the end of the reaction, the absorbance at 450 nm was measured by a plate reader. The data were analyzed by SoftMax Pro 6.2.1.

In assay [4] the target is T1, human IL4RA-hFc. The experiment in a line: competitive ELISA; blocks IL4-N-His (0.15 ug/ml) binding to coated IL4RA-hFc (2 ug/mL). On the procedure: The ELISA plates were coated with human IL4RA-hFc and blocked before the antibodies were added. […] After the plates were washed, mouse anti-His, HRP (purchased from CoWin Biosciences, Cat No. CW0285M) was added for incubation. The plates were subjected to another wash. Chromogenic reaction was started by adding TMB (Neogen, 308177) and was then terminated. At the end of the reaction, the OD value at 450 nm wavelength was measured by a plate reader, and was analyzed and processed by SoftMax Pro 6.2.1.
as §1

B1: 13E5 (antibody, V domains shown)
VH: EVQLQQSGPELVKPGASVKISCKTSGYTFTEYTIHWVKQNHGKSLEWIGGINPNNGGTVYNQNFKGKATLTVDKSSSTAYMELRSLTSEDSAVYYCARVRRGMDYWGQGTSVTVSS
VL: DIVMTQSHKFMSTSVGDRVSITCKASQDVTTAVAWYQQKPGQSPKLLIYSASYRYTGVPDRFTGSGSGTDFTFTISSVQAEDLAVYYCQQHYSAPWTFGGGTNLEIK
notes: Murine hybridoma antibody purified on protein A; also called murine antibody 13E5; antibody secreted by hybridoma LT008 (IL4RA-13E5)
The term EC50 denotes the concentration needed to bring the measured effect to its halfway point. On to B1, for which the results for the EC50 in the assay with human IL4RA-hFc [1] and with human IL4RA-hFc [3] were 3 nM and 0.084 nM, respectively. In addition, the OD450 with human IL4RA-hFc [2] was determined as 0.053.

B2: 18H7 (antibody, V domains shown)
VH: DVKLVESGGDLVNLGGSLKLSCAASGFTFSSSYMSWVRQTPERRLELVAAINSNGGKTYYPDTVKGRFTISRDNAKNTLYLQMSGLKTEDTALYYCTRQRGNYVGAMDYWGQGTSVTVSS
VL: B1 VL with T30S, A34V, K45T, Q89H, H91Y, S93G, A94S, W96P, N103K
notes: Murine hybridoma antibody purified on protein A; also called murine antibody 18H7; antibody secreted by hybridoma LT009 (IL4RA-18H7)
Regarding B2, the 50% effective concentration (EC50) was determined as 0.068 nM with human IL4RA-hFc [3] and 2.71 nM with human IL4RA-hFc [4].
